# In US20200239573A1 (CRESCENDO BIOLOGICS, published 2020):
# B1: Humabody® 1.92 (VHH)
# VHH: EVQLVESGGGLVKPGGSLRLSCAASGFTFSDESMTWMRQAPGKGLEWVSYISSGGGVKFYADSVKGRFTISRDNAKNSLYLQMNSLRAEDTAVYYCAREAPLRLGESPHDAFDISGQGTMVTVSS
# notes: human VH single domain antibody
# Tests used:
# [1] = target: T1, human PD-1 expressed on cells (CHO human PD-1 cells) (human, UniProt Q15116 21-288); test: FMAT inhibition; 100 pM PD-L1-Fc on CHO human PD-1 cells
# T1 construct: also called CHO TREX human PD-1 cell line; CHO PD-1
# Procedure: All reagents and serially diluted VH were prepared in FMAT assay buffer. […] Plates were incubated for 2 hours at room temperature then fluorescence measured in the FL2 (502 nm-537 nm) and FL5 (677-800 nm) channels on the Mirrorball plate reader (TTP) following excitation at 488 nm and 640 nm. Data was expressed as a % of the total binding control (i.e. % control) after subtraction of the background signal determined from the non-specific binding control wells.
# [2] = target: T2, recombinant human PD-1 Fc chimera (human, UniProt Q15116 25-167); test: HTRF binding, 2 nM PD-1, anti-Fc cryptate and anti-His-D2
# T2 construct: Bought protein; also called human PD-1-huFc; huPD-1-Fc; not shown: human Fc
# Procedure: (§1) e) Species Cross Reactivity Testing Purified […] were tested for their ability to bind to human PD-1 (R&D Systems cat no. 1086-PD), cynomolgus PD-1 (Acro Biosystems cat no. PD-1-05254) and mouse PD-1 (R&D Systems cat no. 1021-PD) in an HTRF Binding assay format. All reagents and serially diluted VH were prepared in assay buffer containing PBS, 0.1% BSA and 0.4M Potassium Fluoride. Samples or assay buffer (non-specific binding) were incubated with 2 nM human/cynomolgus or mouse PD-1, 1 nM Anti human-Fc Cryptate PAb (Cisbio cat. no. 61HFCKLB) and 30 nM anti His-D2 (CisBio cat no 61HISDLA) in black 384-shallow well assay plates for a minimum of 3 hours at room temperature. Time-resolved fluorescent emission at 620 nm and 665 nm was measured following excitation at 337 nm on the BMG PHERAstar plate reader. The HTRF ratio were calculated ((665 nm emission/620 nm emission)*10000) and the data corrected for (non-specific binding) to give the specific binding signal.
# [3] = target: T3, cynomolgus PD-1 recombinant protein (cynomolgus, UniProt B0LAJ3 25-170); test: as above
# T3 construct: Detected with anti human-Fc cryptate, so probably Fc tagged; also called cyno PD-1; cynomolgus PD-1 (Acro Biosystems cat no. PD-1-05254); not shown: The vendor's carrier tag; It is probably a human Fc, since detection used anti human-Fc cryptate
# Procedure: as §1
# [4] = target: human PD-1 on primary human CD4+ T cells (human, UniProt Q15116 21-288); test: flow cytometry, PHA-stimulated human CD4+ T cells, donor 4
# Procedure: Binding of monovalent single domain antibodies and multivalent binding agents to T cells was measured using flow cytometry. […] T-cells were stimulated with 2.5 μg/ml PHA for 2-4 days in RPMI media supplemented with 10% FBS, 2 mM Glutamine, 1× Pen/Strep. Cells were transferred into 96 well plates (75000 per well), blocked for 10 mins with PBS/1% BSA, then incubated with serially diluted VH in staining buffer (PBS/1% BSA) for 1 hour at 4° C. Cells were washed with staining buffer by centrifugation then incubated with 10 μg/ml biotinylated Anti His antibody for 40 mins at 4° C. Cells were washed again then stained with Streptavidin Alexa Fluor-488 (10 μg/ml) and 1:5000 diluted Live Dead near IR stain (Molecular Probes cat no. L10119) for 30 mins at 4° C. After further washing cells were fixed and fluorescence measured by flow cytometry.
# [5] = target: T2, recombinant human PD-1 Fc chimera; test: SPR Biacore T200, PD-1-huFc amine-coupled, single cycle kinetics
# Procedure: Binding kinetics of certain VH single domain antibodies binding to human PD-1-huFc were measured by surface plasmon resonance (SPR) technology using Biacore T200 instrument (GE Healthcare). Recombinant human PD-1-huFc was immobilized by standard amine coupling to CM5 sensorschip (GE Healthcare) using in range of 0.1-0.01 mg/ml solution of antigen in 10 mM sodium acetate at pH 5.5. For the reference flow cell, a blank immobilisation was carried out. Single cycle kinetics assays were used to study the interaction, a five point, three-fold dilution series of each Humabody® was made with a top concentration of 30 nM. The binding kinetics were followed by flowing the Humabody® over the chip surface in HBS EP+ buffer at a flow rate of 30 μl/min. The contact time for each of the association steps was 180 seconds and the dissociation step was varied between 1200-3600 seconds. The data was fitted to a 1:1 binding model after double reference subtraction using the Biacore T200 Evaluation software.
# [6] = target: T1, human PD-1 expressed on cells (CHO …); test: FMAT direct binding to CHO human PD-1 cells; column headed CHO PD-1 binding IC50 (M)
# Source text: Plates were read in the FL2 (502 nm-537 nm) and FL5 (677-800 nm) channels on the TTP Mirrorball plate reader following excitation at 488 nm and 640 nm.
# [7] = target: T1, human PD-1 expressed on cells (CHO …); test: FMAT 1.57 epitope competition on CHO human PD-1 cells; competitor 1.57-Strep; sample kept 1 day in mouse serum
# Procedure: (§2) For the epitope competition assay reagents were prepared in FMAT assay buffer. […] Plates were incubated for a minimum of 1.5 hours at room temperature then fluorescence measured in the FL2 (502 nm-537 nm) and FL5 (677-800 nm) channels on the Mirrorball plate reader (TTP) following excitation at 488 nm and 640 nm. Data was expressed as a % of the total binding control (i.e. % control) after subtraction of the background signal determined from the non-specific binding control wells.
# (§3) Serum stability of VH and multivalent VH constructs was assessed by measurement of their activity following incubation for 0, 1, 4 or 7 days in mouse serum (Sigma M5905).
# [8] = target: T1, human PD-1 expressed on cells (CHO …); test: FMAT 1.57 epitope competition on CHO human PD-1 cells; competitor 1.57-Strep; sample kept 4 days in human serum
# [9] = target: T1, human PD-1 expressed on cells (CHO …); test: FMAT 1.57 epitope competition on CHO human PD-1 cells; competitor 1.57-Strep; sample kept 4 days in mouse serum
# Procedure: as §2, §3
# T2 sequence (Q15116 25-167 limits assumed, change not shown): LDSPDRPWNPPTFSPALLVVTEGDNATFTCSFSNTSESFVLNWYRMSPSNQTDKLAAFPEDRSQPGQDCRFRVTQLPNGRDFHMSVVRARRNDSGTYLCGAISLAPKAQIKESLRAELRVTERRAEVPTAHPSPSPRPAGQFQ
# T1 sequence (Q15116 21-288): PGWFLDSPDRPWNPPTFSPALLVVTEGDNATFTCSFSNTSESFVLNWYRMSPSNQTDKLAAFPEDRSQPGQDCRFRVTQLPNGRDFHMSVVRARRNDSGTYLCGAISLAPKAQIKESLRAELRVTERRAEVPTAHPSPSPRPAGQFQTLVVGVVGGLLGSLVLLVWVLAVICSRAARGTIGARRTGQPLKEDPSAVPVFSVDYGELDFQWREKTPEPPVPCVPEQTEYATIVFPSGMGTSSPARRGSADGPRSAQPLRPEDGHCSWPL
# T3 sequence (B0LAJ3 entry or part of it limits assumed): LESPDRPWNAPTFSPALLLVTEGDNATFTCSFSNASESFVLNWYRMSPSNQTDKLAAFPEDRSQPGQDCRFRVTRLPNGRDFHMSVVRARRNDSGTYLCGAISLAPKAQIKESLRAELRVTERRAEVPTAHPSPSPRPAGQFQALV
# Chain of human PD-1 on primary human CD4+ T cells (Q15116 21-288): as the sequence (Q15116 21-288) above
binder,measurement,setting,value
B1,IC50,[1],2.8 nM
same,EC50,[2],2.6 nM
same,EC50,[3],4.1 nM
same,EC50,[4],0.9 nM
same,Kd,[5],0.059 nM
same,koff,[5],3.67e-05 s⁻¹
same,kon,[5],620000 M⁻¹ s⁻¹
same,EC50,[6],0.1 nM
same,IC50,[7],4.4 nM
same,IC50,[8],6.1 nM
same,IC50,[9],4.7 nM
